B1: CPEB3 Ribozyme (parent)
chain: GGGGGCCACAGCAGAAGCGUUCACGUCGCGGCCCCUGUCAGAUUCUGGUGAAUCUGCGAAUUCUGCUGU

Variants of: B1
Assay: self-cleavage, relative activity (ratio to wild type); higher = more cleavage; co-transcriptional

Variant | self-cleavage
GGGCGCCACAGCAGAAGCGAUCACGUCGCGGCCCCUGUCAGAUUCUGGUGAAUCUGCGAAUUCUGCUGU [G4C U20A] | 0.0691
GGGCGCCACAGCAGAAGCGGUCACGUCGCGGCCCCUGUCAGAUUCUGGUGAAUCUGCGAAUUCUGCUGU [G4C U20G] | 0.072
GGGCGCCACAGCAGAAGCGCUCACGUCGCGGCCCCUGUCAGAUUCUGGUGAAUCUGCGAAUUCUGCUGU [G4C U20C] | 0.0911
GGGUGCCUCAGCAGAAGCGUUCACGUCGCGGCCCCUGUCAGAUUCUGGUGAAUCUGCGAAUUCUGCUGU [G4U A8U] | 0.737
GGGUGCCACAGCAGAAGCGUUCACGUCGCGGCCCCUGUCAGGUUCUGGUGAAUCUGCGAAUUCUGCUGU [G4U A42G] | 0.655
GGGUGCCACAGCAGAAGCGUUCACGUCGCGGCCCCUGUCAGUUUCUGGUGAAUCUGCGAAUUCUGCUGU [G4U A42U] | 0.526
GGGCGCCACAGCAGAAGCGUUCACGUCGCGGCCCCUAUCAGAUUCUGGUGAAUCUGCGAAUUCUGCUGU [G4C G37A] | 0.124
GGGCGCCACAGCAGAAGCGUUCACGUCGCGGCCCCUCUCAGAUUCUGGUGAAUCUGCGAAUUCUGCUGU [G4C G37C] | 0.068
GGGCGCCACAGCAGAAGCGUUCACGUCGCGGCCCCUUUCAGAUUCUGGUGAAUCUGCGAAUUCUGCUGU [G4C G37U] | 0.0878
GGGCGCCACAGCAGAAGCGUUCACUUCGCGGCCCCUGUCAGAUUCUGGUGAAUCUGCGAAUUCUGCUGU [G4C G25U] | 0.0499
GGGCGCCACAGCAGAAGCGUUCACGUCGCGGCCCCUGUCACAUUCUGGUGAAUCUGCGAAUUCUGCUGU [G4C G41C] | 0.146
GGGCGCCACAGCAGAAGCGUUCACGUCGCGGCCCCUGUCAAAUUCUGGUGAAUCUGCGAAUUCUGCUGU [G4C G41A] | 0.0714
GGGCGCCACAGCAGAAGCGUUCACGUCGCGGCCCCUGUCAGAUUCUGGUGAAUCUGCGAAUUCUGCUGA [G4C U69A] | 0.877
GGGCGCCACAGCAGAAGCGUUCACGUCGCGGCCCCUGUCAGAUUCUGGUGAAUCUGCGAAUUCUGCUGG [G4C U69G] | 0.914
GGGCGCCACAGCAGAAGCGUUCACGUCGCGGCCCCUGUCAGAUUCUGGUGAAUCUGCGAAUUCUGCUUU [G4C G68U] | 0.98
GGGCGCCACAGCAGAAGCGUUCACGUCGCGGCCCCUGUCAGAUUCUGGUGAAUCUGCGAAUUCAGCUGU [G4C U64A] | 0.457
GGGCGCCACAGCAGAAGCGUUCACGUCGCGGCCCCUGUCAGAUUCUGGUGAAUCUGCGAAUUCCGCUGU [G4C U64C] | 0.426
GGGUGCCACAGCAGAAGCGUUCACGUCGCGGCCCCUGUCAGAUUCUGGUGAAUCUGCGACUUCUGCUGU [G4U A60C] | 0.171
GGGCGCCACAGCAGAAGCGUUCACGUCGCGGCCCCUGUCAGAUUCUGUUGAAUCUGCGAAUUCUGCUGU [G4C G48U] | 0.755
GGGCGCCACAGCAGAAGCGUUCACGUCGCGGCCCCUGUCAGAUUCUGCUGAAUCUGCGAAUUCUGCUGU [G4C G48C] | 0.675

Variant | self-cleavage
GGGCGCCACAGCAGAAGCGUACACGUCGCGGCCCCUGUCAGAUUCUGGUGAAUCUGCGAAUUCUGCUGU [G4C U21A] | 0.427
GGGCGCCACAGCAGAAGCGUCCACGUCGCGGCCCCUGUCAGAUUCUGGUGAAUCUGCGAAUUCUGCUGU [G4C U21C] | 0.215
GGGCGCCACAGCAGAAGCGUGCACGUCGCGGCCCCUGUCAGAUUCUGGUGAAUCUGCGAAUUCUGCUGU [G4C U21G] | 0.0719
GGGUGCCACAGCAGAAGCGUUCACGUCGCGGCCCCUGUCAGAUUCUGGUGGAUCUGCGAAUUCUGCUGU [G4U A51G] | 0.692
GGGUGCCACAGCAGAAGCGUUCACGUCGCGGCCCCUGUCAGAUUCUGGUGUAUCUGCGAAUUCUGCUGU [G4U A51U] | 0.772
GGGUGCCACAGCAGAAGCGUUCACGUCGCGGCCCCUGUCAGAUUCUGGUGCAUCUGCGAAUUCUGCUGU [G4U A51C] | 0.524
GGGCGCCACAGCAGAAGCGUUCACGUCGCGGCCCCUGUCAGAUUCCGGUGAAUCUGCGAAUUCUGCUGU [G4C U46C] | 0.619
GGGUGCCACAGCAGAAGCGUUCACGUCGCGGCCCCUGUCAGAUUCUGGUGAAUCUGCGCAUUCUGCUGU [G4U A59C] | 0.146
GGGUGCCACAGCAGAAGCGUUCACGUCGCGGCCCCUGUCAGAUUCUGGUGAAUCUGCGUAUUCUGCUGU [G4U A59U] | 0.193
GGGCGCCACAGCAGAAGCGUUCACGUCGCGGCCCCUGUCAGAUUCUGGUGAAUCUGCAAAUUCUGCUGU [G4C G58A] | 0.278
GGGCGCCACAGCAGAAGCGUUCACGUCGCGGCCCCUGUCAGAUUCUGGUGAAUCUGCUAAUUCUGCUGU [G4C G58U] | 0.71
GGGCGCCACAGCAGAAGCGUUCACGUCGCGGCCCCUGUCAGAUUCUGGUGAAUCUGCCAAUUCUGCUGU [G4C G58C] | 0.226
GGGCGCCACAGCAGAAGCGUUCACGUCGCGGCCCCUGUCAGAUGCUGGUGAAUCUGCGAAUUCUGCUGU [G4C U44G] | 0.265
GGGCGCCACAGCAGAAGCGUUCACGUCGCGGCCCCGGUCAGAUUCUGGUGAAUCUGCGAAUUCUGCUGU [G4C U36G] | 0.481
GGGCGCCACAGCAGAAGCGUUCACGUCGCGGCCCCAGUCAGAUUCUGGUGAAUCUGCGAAUUCUGCUGU [G4C U36A] | 0.0958
GGGCGCCACAGCAGAAGCGUUCACGUCGCGGCCCCCGUCAGAUUCUGGUGAAUCUGCGAAUUCUGCUGU [G4C U36C] | 0.589
GGGCGCCACAGCAGAAGCGUUCACGUCGCGGCCCCUGUCAGAUUCUGGUGAAUCUGCGAAGUCUGCUGU [G4C U61G] | 0.178
GGGCGCCACAGCAGAAGCGUUCACGUCGCGGCCCCUGUCAGAUUCUGGUGAAUCUGCGAACUCUGCUGU [G4C U61C] | 0.169
GGGUGCCACUGCAGAAGCGUUCACGUCGCGGCCCCUGUCAGAUUCUGGUGAAUCUGCGAAUUCUGCUGU [G4U A10U] | 0.983

Reference: the RNAGym collection of RNA variant scans (doi:10.7554/elife.80360)
